From US20220177596A1 (Bristol-Myers Squibb, published 2022)

B1: humanized Y1238 hz39 (hz-HC8 / hz-LC4), IgG1.3f (antibody, V domains shown)
VH: QVQLVQSGAEVVKPGASVKVSCKASGYAFTNYLIEWVRQRPGQGLEWMGVINPGSGGTNYNEKFKGRVTLTADKSSSTAYMQLSRLRSDDTAVYFCARSQLGRRFDYWGQGTLVTVSS
VL: DIQMTQSPSSLSASVGDRVTITCKASQDVRTGVAWYQQKPGQSPKLLIYSASYRNTGVPSRFSGSRSGTDFTFTISSLQAEDIAVYYCQQHYSPPYTFGGGTKVEIK
notes: IgG1.3f heavy constant, common CL; expression supernatant; also called Sup 39
B2: humanized Y1238 hz40 (hz-HC8 / hz-LC5), IgG1.3f (antibody, V domains shown)
VH: QVQLVQSGAEVVKPGASVKVSCKASGYAFTNYLIEWVRQRPGQGLEWMGVINPGSGGTNYNEKFKGRVTLTADKSSSTAYMQLSRLRSDDTAVYFCARSQLGRRFDYWGQGTLVTVSS
VL: DIQMTQSPSSLSASVGDRVTITCKASQDVRTGVAWYQQKPGQAPKLLIYSASYRNTGVPSRFSGSRSGTDFTFTISSLQPEDIAVYYCQQHYSPPYTFGGGTKVEIK
notes: IgG1.3f heavy constant, common CL; expression supernatant; also called Sup 40
B3: humanized Y1238 hz42 (hz-HC9 / hz-LC2), IgG1.3f (antibody, V domains shown)
VH: QVQLVQSGAEVVKPGASVKVSCKASGYAFTNYLIEWVRQRPGQGLEWMGVINPGSGGTNYNEKFKGRVTLTADKSSSTAYMQLSRLRSDDTAVYFCARSQLGRRFDYWGQGTTVTVSS
VL: DIQMTQSPSSLSASVGDRVTITCKASQDVRTGVAWYQQKPGKAPKLLIYSASYRNTGVPSRFSGSRSGTDFTFTISSLQPEDIATYYCQQHYSPPYTFGGGTKVEIK
notes: IgG1.3f heavy constant, common CL; expression supernatant; also called Sup 42
B4: humanized Y1238 hz54 (hz-HC11 / hz-LC4), IgG1.3f (antibody, V domains shown)
VH: QVQLVQSGAEVKKPGASVKVSCKASGYAFTNYLIEWVRQRPGQGLEWMGVINPGSGGTNYNEKFKGRVTMTRDKSSSTAYMELSRLRSDDTAVYFCARSQLGRRFDYWGQGTLVTVSS
VL: DIQMTQSPSSLSASVGDRVTITCKASQDVRTGVAWYQQKPGQSPKLLIYSASYRNTGVPSRFSGSRSGTDFTFTISSLQAEDIAVYYCQQHYSPPYTFGGGTKVEIK
notes: IgG1.3f heavy constant, common CL; expression supernatant; also called Sup 54
B5: humanized Y1238 hz47 (hz-HC10 / hz-LC2), IgG1.3f (antibody, V domains shown)
VH: QVQLVQSGAEVKKPGASVKVSCKASGYAFTNYLIEWVRQRPGQGLEWMGVINPGSGGTNYNEKFKGRVTMTRDKSISTAYMELSRLRSDDTAVYYCARSQLGRRFDYWGQGTLVTVSS
VL: DIQMTQSPSSLSASVGDRVTITCKASQDVRTGVAWYQQKPGKAPKLLIYSASYRNTGVPSRFSGSRSGTDFTFTISSLQPEDIATYYCQQHYSPPYTFGGGTKVEIK
notes: IgG1.3f heavy constant, common CL; expression supernatant; also called Sup 47
B6: humanized Y1238 hz55 (hz-HC11 / hz-LC5), IgG1.3f (antibody, V domains shown)
VH: QVQLVQSGAEVKKPGASVKVSCKASGYAFTNYLIEWVRQRPGQGLEWMGVINPGSGGTNYNEKFKGRVTMTRDKSSSTAYMELSRLRSDDTAVYFCARSQLGRRFDYWGQGTLVTVSS
VL: DIQMTQSPSSLSASVGDRVTITCKASQDVRTGVAWYQQKPGQAPKLLIYSASYRNTGVPSRFSGSRSGTDFTFTISSLQPEDIAVYYCQQHYSPPYTFGGGTKVEIK
notes: IgG1.3f heavy constant, common CL; expression supernatant; also called Sup 55
B7: humanized Y1238 hz53 (hz-HC11 / hz-LC3), IgG1.3f (antibody, V domains shown)
VH: QVQLVQSGAEVKKPGASVKVSCKASGYAFTNYLIEWVRQRPGQGLEWMGVINPGSGGTNYNEKFKGRVTMTRDKSSSTAYMELSRLRSDDTAVYFCARSQLGRRFDYWGQGTLVTVSS
VL: DIQMTQSPSSLSASVGDRVTITCKASQDVRTGVAWYQQKPGQSPKLLIYSASYRNTGVPSRFSGSRSGTDFTFTISSLQPEDIAVYYCQQHYSPPYTFGGGTKVEIK
notes: IgG1.3f heavy constant, common CL; expression supernatant; also called Sup 53
B8: humanized Y1238 hz48 (hz-HC10 / hz-LC3), IgG1.3f (antibody, V domains shown)
VH: QVQLVQSGAEVKKPGASVKVSCKASGYAFTNYLIEWVRQRPGQGLEWMGVINPGSGGTNYNEKFKGRVTMTRDKSISTAYMELSRLRSDDTAVYYCARSQLGRRFDYWGQGTLVTVSS
VL: DIQMTQSPSSLSASVGDRVTITCKASQDVRTGVAWYQQKPGQSPKLLIYSASYRNTGVPSRFSGSRSGTDFTFTISSLQPEDIAVYYCQQHYSPPYTFGGGTKVEIK
notes: IgG1.3f heavy constant, common CL; expression supernatant; also called Sup 48
B9: humanized Y1238 hz43 (hz-HC9 / hz-LC3), IgG1.3f (antibody, V domains shown)
VH: QVQLVQSGAEVVKPGASVKVSCKASGYAFTNYLIEWVRQRPGQGLEWMGVINPGSGGTNYNEKFKGRVTLTADKSSSTAYMQLSRLRSDDTAVYFCARSQLGRRFDYWGQGTTVTVSS
VL: DIQMTQSPSSLSASVGDRVTITCKASQDVRTGVAWYQQKPGQSPKLLIYSASYRNTGVPSRFSGSRSGTDFTFTISSLQPEDIAVYYCQQHYSPPYTFGGGTKVEIK
notes: IgG1.3f heavy constant, common CL; expression supernatant; also called Sup 43
B10: humanized Y1238 hz46 (hz-HC10 / hz-LC1), IgG1.3f (antibody, V domains shown)
VH: QVQLVQSGAEVKKPGASVKVSCKASGYAFTNYLIEWVRQRPGQGLEWMGVINPGSGGTNYNEKFKGRVTMTRDKSISTAYMELSRLRSDDTAVYYCARSQLGRRFDYWGQGTLVTVSS
VL: DIQMTQSPSSLSASVGDRVTITCKASQDVRTGVAWYQQKPGKAPKLLIYSASYRNTGVPSRFSGSGSGTDFTFTISSLQPEDIATYYCQQHYSPPYTFGGGTKVEIK
notes: IgG1.3f heavy constant, common CL; expression supernatant; also called Sup 46
B11: humanized Y1238 hz45 (hz-HC9 / hz-LC5), IgG1.3f (antibody, V domains shown)
VH: QVQLVQSGAEVVKPGASVKVSCKASGYAFTNYLIEWVRQRPGQGLEWMGVINPGSGGTNYNEKFKGRVTLTADKSSSTAYMQLSRLRSDDTAVYFCARSQLGRRFDYWGQGTTVTVSS
VL: DIQMTQSPSSLSASVGDRVTITCKASQDVRTGVAWYQQKPGQAPKLLIYSASYRNTGVPSRFSGSRSGTDFTFTISSLQPEDIAVYYCQQHYSPPYTFGGGTKVEIK
notes: IgG1.3f heavy constant, common CL; expression supernatant; also called Sup 45
B12: humanized Y1238 hz49 (hz-HC10 / hz-LC4), IgG1.3f (antibody, V domains shown)
VH: QVQLVQSGAEVKKPGASVKVSCKASGYAFTNYLIEWVRQRPGQGLEWMGVINPGSGGTNYNEKFKGRVTMTRDKSISTAYMELSRLRSDDTAVYYCARSQLGRRFDYWGQGTLVTVSS
VL: DIQMTQSPSSLSASVGDRVTITCKASQDVRTGVAWYQQKPGQSPKLLIYSASYRNTGVPSRFSGSRSGTDFTFTISSLQAEDIAVYYCQQHYSPPYTFGGGTKVEIK
notes: IgG1.3f heavy constant, common CL; expression supernatant; also called Sup 49
B13: humanized Y1238 hz44 (hz-HC9 / hz-LC4), IgG1.3f (antibody, V domains shown)
VH: QVQLVQSGAEVVKPGASVKVSCKASGYAFTNYLIEWVRQRPGQGLEWMGVINPGSGGTNYNEKFKGRVTLTADKSSSTAYMQLSRLRSDDTAVYFCARSQLGRRFDYWGQGTTVTVSS
VL: DIQMTQSPSSLSASVGDRVTITCKASQDVRTGVAWYQQKPGQSPKLLIYSASYRNTGVPSRFSGSRSGTDFTFTISSLQAEDIAVYYCQQHYSPPYTFGGGTKVEIK
notes: IgG1.3f heavy constant, common CL; expression supernatant; also called Sup 44
B14: humanized Y1238 hz50 (hz-HC10 / hz-LC5), IgG1.3f (antibody, V domains shown)
VH: QVQLVQSGAEVKKPGASVKVSCKASGYAFTNYLIEWVRQRPGQGLEWMGVINPGSGGTNYNEKFKGRVTMTRDKSISTAYMELSRLRSDDTAVYYCARSQLGRRFDYWGQGTLVTVSS
VL: DIQMTQSPSSLSASVGDRVTITCKASQDVRTGVAWYQQKPGQAPKLLIYSASYRNTGVPSRFSGSRSGTDFTFTISSLQPEDIAVYYCQQHYSPPYTFGGGTKVEIK
notes: IgG1.3f heavy constant, common CL; expression supernatant; also called Sup 50
B15: humanized Y1238 hz52 (hz-HC11 / hz-LC2), IgG1.3f (antibody, V domains shown)
VH: QVQLVQSGAEVKKPGASVKVSCKASGYAFTNYLIEWVRQRPGQGLEWMGVINPGSGGTNYNEKFKGRVTMTRDKSSSTAYMELSRLRSDDTAVYFCARSQLGRRFDYWGQGTLVTVSS
VL: DIQMTQSPSSLSASVGDRVTITCKASQDVRTGVAWYQQKPGKAPKLLIYSASYRNTGVPSRFSGSRSGTDFTFTISSLQPEDIATYYCQQHYSPPYTFGGGTKVEIK
notes: IgG1.3f heavy constant, common CL; expression supernatant; also called Sup 52
B16: humanized Y1238 hz41 (hz-HC9 / hz-LC1), IgG1.3f (antibody, V domains shown)
VH: QVQLVQSGAEVVKPGASVKVSCKASGYAFTNYLIEWVRQRPGQGLEWMGVINPGSGGTNYNEKFKGRVTLTADKSSSTAYMQLSRLRSDDTAVYFCARSQLGRRFDYWGQGTTVTVSS
VL: DIQMTQSPSSLSASVGDRVTITCKASQDVRTGVAWYQQKPGKAPKLLIYSASYRNTGVPSRFSGSGSGTDFTFTISSLQPEDIATYYCQQHYSPPYTFGGGTKVEIK
notes: IgG1.3f heavy constant, common CL; expression supernatant; also called Sup 41
B17: humanized Y1238 hz51 (hz-HC11 / hz-LC1), IgG1.3f (antibody, V domains shown)
VH: QVQLVQSGAEVKKPGASVKVSCKASGYAFTNYLIEWVRQRPGQGLEWMGVINPGSGGTNYNEKFKGRVTMTRDKSSSTAYMELSRLRSDDTAVYFCARSQLGRRFDYWGQGTLVTVSS
VL: DIQMTQSPSSLSASVGDRVTITCKASQDVRTGVAWYQQKPGKAPKLLIYSASYRNTGVPSRFSGSGSGTDFTFTISSLQPEDIATYYCQQHYSPPYTFGGGTKVEIK
notes: IgG1.3f heavy constant, common CL; expression supernatant; also called Sup 51

Each binder was assayed against T1, human-CD40 monomer (human, UniProt P25942 21-193, limits assumed) (assay: SPR 2 pt screen, Ab on protein A).
T1 construct: also called hCD40-monomer; human-CD40-monomer protein
T1 sequence (P25942 21-193 limits assumed): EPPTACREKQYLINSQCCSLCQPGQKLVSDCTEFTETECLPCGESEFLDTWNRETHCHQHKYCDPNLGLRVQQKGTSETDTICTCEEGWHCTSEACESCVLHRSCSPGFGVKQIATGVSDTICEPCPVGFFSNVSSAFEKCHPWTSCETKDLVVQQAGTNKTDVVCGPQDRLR
Procedure: The VH sequences were formatted in the context of an IgG1.3f isotype. The Vκ sequences were formatted as a full light chain with a common CL sequence. All 55 combinations of these humanized HC and LC constructs, as well as the chimeric Y1238 molecule were expressed as 3 ml supernatants for binding analysis by SPR. Each of the 56 supernatants, as well as a purified Y1238-chimeric IgG1 antibody, was captured on a protein A sensor chip and tested for binding to two concentrations (i.e., 200 nM and 1000 nM) of hCD40-monomer using BIAcore™ SPR in a screening assay. All antibodies, except for those containing hz-HC3, captured at high levels (>300 RU) using a 100-fold dilution of the expression supernatant, indicating a high antibody titer in the supernatant except for the hz-HC3 samples. The kinetic data for the two concentrations of hCD40-monomer were fit to a 1:1 Langmuir model, to yield estimates of the kinetic and affinity values for these interactions, and for comparison of the different molecules. […] Also, for a given heavy chain, the antibodies with light chains hz-LC1 or hz-LC2 had higher CD40 affinity than those with hz-LC3, hz-LC4 or hz-LC5.
B1 showed a Kd of 7.5 nM, a koff of 0.0003 s⁻¹ and a kon of 40000 M⁻¹ s⁻¹.
Work on B2 yielded a Kd of 6.5 nM, a koff of 0.00026 s⁻¹ and a kon of 39000 M⁻¹ s⁻¹.
B3 was tested, and the Kd was 5.4 nM, the koff was 0.0002 s⁻¹ and the kon was 36000 M⁻¹ s⁻¹.
B4 showed a Kd of 15 nM, a koff of 0.00056 s⁻¹ and a kon of 38000 M⁻¹ s⁻¹.
B5 showed a Kd of 8.8 nM, a koff of 0.00032 s⁻¹ and a kon of 36000 M⁻¹ s⁻¹.
B6 showed a Kd of 15 nM, a koff of 0.00056 s⁻¹ and a kon of 37000 M⁻¹ s⁻¹.
For B7, the Kd was 18 nM, the koff was 0.00067 s⁻¹ and the kon was 37000 M⁻¹ s⁻¹.
Work on B8 yielded a Kd of 14 nM, a koff of 0.00055 s⁻¹ and a kon of 39000 M⁻¹ s⁻¹.
For B9, the Kd was 7.6 nM, the koff was 0.00029 s⁻¹ and the kon was 39000 M⁻¹ s⁻¹.
In the case of B10, the Kd is reported as 5.1 nM, the koff is reported as 0.0002 s⁻¹ and the kon is reported as 39000 M⁻¹ s⁻¹.
For B11, the Kd was 9.6 nM, the koff was 0.00038 s⁻¹ and the kon was 39000 M⁻¹ s⁻¹.
B12 showed a Kd of 12 nM, a koff of 0.00048 s⁻¹ and a kon of 39000 M⁻¹ s⁻¹.
For B13, the Kd was 8.5 nM, the koff was 0.00033 s⁻¹ and the kon was 39000 M⁻¹ s⁻¹.
For B14, the Kd was 16 nM, the koff was 0.00061 s⁻¹ and the kon was 39000 M⁻¹ s⁻¹.
With B15 the Kd was 6.5 nM, the koff was 0.00023 s⁻¹ and the kon was 35000 M⁻¹ s⁻¹.
B16 was tested, and the Kd was 4.4 nM, the koff was 0.00017 s⁻¹ and the kon was 38000 M⁻¹ s⁻¹.
B17 showed a Kd of 6.7 nM, a koff of 0.00025 s⁻¹ and a kon of 37000 M⁻¹ s⁻¹.
